Legend:
[1] = target: fluorescein-5-maleimide-labelled wild-type lipase A (P. aeruginosa PAO1) (UniProt P26876)
[2] = target: lipase A (LipA) from Pseudomonas aeruginosa PAO1, wild type (P. aeruginosa PAO1) (UniProt P26876)
[3] = target: periplasmic chaperone FkpA of P. aeruginosa (P. aeruginosa PAO1); experiment: SEC-MALS; isolated chaperones at 2 mg/ml, Superdex 200 Increase 10/300 GL; FkpA, SurA and PpiD in 50 mM KCl, 5 mM MgCl2, 20 mM HEPES-KOH pH 7.4; YfgM in 5 mM glycine, 20 mM NaCl, 5 mM Tris-HCl pH 8.5; Skp in 100 mM NaCl, 20 mM Tris-HCl pH 8.0; LipH in 100 mM NaCl, 200 µM TCEP, 50 mM Tris-HCl pH 8.0
[4] = target: lipase A (LipA) from Pseudomonas aeruginosa PAO1, wild type (P. aeruginosa PAO1) (UniProt P26876); remark: listed apart in the source
[5] = target: fluorescein-5-maleimide-labelled wild-type lipase A (P. aeruginosa PAO1) (UniProt P26876); remark: listed apart in the source
[6] = target: periplasmic chaperone Skp of P. aeruginosa (P. aeruginosa PAO1); experiment: SAXS; Skp at 1.20 mg/ml, 15 °C; ab initio reconstitution with P3 symmetry (GASBOR)
[7] = target: lipase A mutant LipA_(F144E) (P. aeruginosa PAO1) (UniProt P26876); experiment: SEC-MALS; LipA_(F144E):Skp mixture (molar ratio 1:3) compared with Skp3 alone; SDS-PAGE and densitometry of the peak fractions
[8] = target: fluorescein-5-maleimide-labelled lipase A mutant LipA_(F144E) (P. aeruginosa PAO1) (UniProt P26876); experiment: MST; FM-labelled LipA_(F144E) kept constant, Skp titrated (monomer concentrations); TGCG buffer with 0.05% Tween 20; 15 min at 22°C; Monolith NT.115
[9] = target: periplasmic chaperone Skp of P. aeruginosa (P. aeruginosa PAO1); experiment: SEC-MALS; isolated chaperones at 2 mg/ml, Superdex 200 Increase 10/300 GL; FkpA, SurA and PpiD in 50 mM KCl, 5 mM MgCl2, 20 mM HEPES-KOH pH 7.4; YfgM in 5 mM glycine, 20 mM NaCl, 5 mM Tris-HCl pH 8.5; Skp in 100 mM NaCl, 20 mM Tris-HCl pH 8.0; LipH in 100 mM NaCl, 200 µM TCEP, 50 mM Tris-HCl pH 8.0

**Q.** What does the source list for “lipase-specific foldase LipH lacking the TMD (domain or fragment)”?
**A.** soluble fraction of LipA in the sedimentation assay, 150 mM NaCl, LipA:LipH molar ratio 1:1 [1]: > 80%; inhibition of pNPB hydrolysis by wild-type LipA with LipH and Skp3 added simultaneously (LipA:LipH:chaperone 1:1:5, 50 mM NaCl) [2]: < 10%

**Q.** Which stoichiometry N [3] does the source give for “periplasmic chaperone FkpA of P. aeruginosa (natural protein)” here?
**A.** 2

**Q.** What does the source list for “periplasmic chaperone Skp of P. aeruginosa (natural protein)”?
**A.** soluble fraction of LipA in the sedimentation assay, 150 mM NaCl, 0.5 µM LipA and 5 µM Skp3 [1]: 66%; decrease in ThT fluorescence of LipA aggregates in the presence of Skp3 (0.5 µM LipA, 5 µM Skp3) [4]: 75%; soluble fraction of LipA in the sedimentation assay at LipA:Skp3 molar ratios 1:10, 1:3 and 1:1; value at 1:10 and 1:3, dropped dramatically at 1:1 [5]: > 70%; stoichiometry N [6]: 3; LipA:Skp3 ratio by densitometry of the peak fractions (Skp3 per LipA) [7]: 3; stoichiometry N (Skp3 per LipA) [7]: 2; KD of the first (high-affinity) binding mode [8]: 20 nM; KD of the second (low-affinity) binding mode [8]: 2000 nM; stoichiometry N [9]: 3

— paper PMC9638971
